From patent US20220177587A1, “METHODS AND USES OF VARIANT CD80 FUSION PROTEINS AND RELATED CONSTRUCTS” (Alpine Immune Sciences, Inc., priority 2018, published 2022)
Each block holds one binder with its values, some of them ahead of it.

Legend:
human PD-L1 (human) [1] = target: human PD-L1 (human) (UniProt Q9NZQ7); assay: flow cytometry, CHO cells expressing huPD-L1, vs WT CD80 ECD-Fc (R&D)
Target sequence in this assay (Q9NZQ7 19-290): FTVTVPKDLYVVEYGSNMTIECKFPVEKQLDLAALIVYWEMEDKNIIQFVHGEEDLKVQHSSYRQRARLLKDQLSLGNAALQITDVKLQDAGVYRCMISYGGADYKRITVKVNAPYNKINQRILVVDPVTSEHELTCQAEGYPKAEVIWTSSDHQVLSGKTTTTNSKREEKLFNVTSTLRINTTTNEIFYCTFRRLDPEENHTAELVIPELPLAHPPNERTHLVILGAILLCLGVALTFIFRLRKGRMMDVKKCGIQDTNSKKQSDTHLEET

human CTLA-4 (human) [2] = target: human CTLA-4 (human) (UniProt P16410); assay: flow cytometry, CHO cells expressing huCTLA4, vs WT CD80 ECD-Fc (R&D)
human CTLA-4 (human) [3] = target: human CTLA-4 (human) (UniProt P16410); assay: flow cytometry, CHO cells expressing huCTLA4
CD28 (human) [4] = target: CD28 (human) (UniProt P10747); assay: flow cytometry, Jurkat/IL2 reporter cells (CD28)
human PD-L1 (human) [5] = target: human PD-L1 (human) (UniProt Q9NZQ7); assay: flow cytometry, CHO cells expressing huPD-L1
Target sequence in this assay (Q9NZQ7 19-290): as above

CD28 (human) [6] = target: CD28 (human) (UniProt P10747); assay: flow cytometry, Jurkat/IL2 reporter cells (CD28), vs WT CD80 ECD-Fc (R&D)
CD28 (human) [7] = target: CD28 (human) (UniProt P10747); assay: flow cytometry, Jurkat cells (CD28)
human PD-L1 (human) [8] = target: human PD-L1 (human) (UniProt Q9NZQ7); assay: flow cytometry, MFI on PD-L1 over MFI on CD28
Target sequence in this assay (Q9NZQ7 19-290): as above

human CTLA-4 (human) [9] = target: human CTLA-4 (human) (UniProt P16410); assay: flow cytometry, CHO cells expressing CTLA4
human PD-L1 (human) [10] = target: human PD-L1 (human) (UniProt Q9NZQ7); assay: flow cytometry, CHO cells expressing PD-L1
Target sequence in this assay (Q9NZQ7 19-290): as above

human CTLA-4 (human) [11] = target: human CTLA-4 (human) (UniProt P16410); assay: flow cytometry, CHO/huCTLA-4 cells; vs WT CD80 ECD-Fc (Abcam)
human PD-L1 (human) [12] = target: human PD-L1 (human) (UniProt Q9NZQ7); assay: flow cytometry; PD-L1 MFI over CD28 MFI of the same protein
Target sequence in this assay (Q9NZQ7 19-290): as above

CD28 (human) [13] = target: CD28 (human) (UniProt P10747); assay: flow cytometry, Jurkat cells (CD28); vs WT CD80 ECD-Fc (Abcam)
human CTLA-4 (human) [14] = target: human CTLA-4 (human) (UniProt P16410); assay: flow cytometry, CHO cells expressing huCTLA-4
human PD-L1 (human) [15] = target: human PD-L1 (human) (UniProt Q9NZQ7); assay: flow cytometry, CHO/huPD-L1 cells; vs WT CD80 ECD-Fc (Abcam)
Target sequence in this assay (Q9NZQ7 19-290): as above

human PD-L1 (human) [16] = target: human PD-L1 (human) (UniProt Q9NZQ7)
Target sequence in this assay (Q9NZQ7 19-290 limits assumed): as the sequence (Q9NZQ7 19-290) above

CD28 (human) [17] = target: CD28 (human) (UniProt P10747)

Chain of human CTLA-4 (human) (P16410 36-223): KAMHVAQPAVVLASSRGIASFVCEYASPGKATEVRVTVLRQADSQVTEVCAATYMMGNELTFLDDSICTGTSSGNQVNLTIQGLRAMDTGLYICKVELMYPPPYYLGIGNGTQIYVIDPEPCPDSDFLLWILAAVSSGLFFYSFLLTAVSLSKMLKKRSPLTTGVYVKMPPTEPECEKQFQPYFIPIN

B3: CD80 E35D/M47V/N48K/V68M/A71G/L85M IgV-Fc (Fc fusion)
chain: VIHVTKEVKEVATLSCGHNVSVEELAQTRIYWQKDKKMVLTMMSGDVKIWPEYKNRTIFDITNNLSIMILGLRPSDEGTYECVVMKYEKDAFKREHLAEVTLSVKAD
- Fold change to WT CD80 (CD28 (human) [7]): 9.6 fold
- MFI at 33.3 nM (CD28 (human) [7]): 302 MFI
- Ratio of PDL1:CD28 (human PD-L1 (human) [8]): 75.4
- Fold change to WT CD80 (human CTLA-4 (human) [9]): 9.5 fold
- MFI at 33.3 nM (human CTLA-4 (human) [9]): 16600 MFI
- Fold change to WT CD80 (human PD-L1 (human) [10]): 442 fold
- MFI at 33.3 nM (human PD-L1 (human) [10]): 22800 MFI

B4: variant CD80 IgV-Fc E35D/D46E/M47V/N63D/L85Q (Fc fusion)
chain: VIHVTKEVKEVATLSCGHNVSVEELAQTRIYWQKDKKMVLTMMSGEVNIWPEYKNRTIFDITDNLSIVILALRPSDEGTYECVVQKYEKDAFKREHLAEVTLSVKAD
- Fold change to WT CD80 (human PD-L1 (human) [1]): 5.88 fold
- Fold change to WT CD80 (human CTLA-4 (human) [2]): 1.74 fold
- MFI at 33.3 nM (human CTLA-4 (human) [3]): 274000 MFI
- MFI at 33.3 nM (CD28 (human) [4]): 1330 MFI
- MFI at 33.3 nM (human PD-L1 (human) [5]): 69800 MFI
- Fold change to WT CD80 (CD28 (human) [6]): 0.07 fold

B5: CD80 E35D/M47L/Y53F/V68M/A71G/K93R/E95V IgV-Fc (Fc fusion)
chain: VIHVTKEVKEVATLSCGHNVSVEELAQTRIYWQKDKKMVLTMMSGDLNIWPEFKNRTIFDITNNLSIMILGLRPSDEGTYECVVLKYEKDAFRRVHLAEVTLSVKAD
- Fold change to WT CD80 (CD28 (human) [7]): 12.2 fold
- MFI at 33.3 nM (CD28 (human) [7]): 383 MFI
- Ratio of PDL1:CD28 (human PD-L1 (human) [8]): 65.3
- Fold change to WT CD80 (human CTLA-4 (human) [9]): 9.1 fold
- MFI at 33.3 nM (human CTLA-4 (human) [9]): 16000 MFI
- Fold change to WT CD80 (human PD-L1 (human) [10]): 486 fold
- MFI at 33.3 nM (human PD-L1 (human) [10]): 25000 MFI

Continued, values first:

- Fold change to WT CD80 (human PD-L1 (human) [1]): 1.09 fold
- Fold change to WT CD80 (human CTLA-4 (human) [2]): 1.59 fold
- MFI at 33.3 nM (human CTLA-4 (human) [3]): 249000 MFI
- MFI at 33.3 nM (CD28 (human) [4]): 2700 MFI
- MFI at 33.3 nM (human PD-L1 (human) [5]): 13000 MFI
- Fold change to WT CD80 (CD28 (human) [6]): 0.15 fold
B1: variant CD80 IgV-Fc E35D/T41S/M43V/M47I/L70M/A71G (Fc fusion)
chain: VIHVTKEVKEVATLSCGHNVSVEELAQTRIYWQKDKKMVLSMVSGDINIWPEYKNRTIFDITNNLSIVIMGLRPSDEGTYECVVLKYEKDAFKREHLAEVTLSVKAD

- Fold change to WT CD80 (human PD-L1 (human) [1]): 0.13 fold
- Fold change to WT CD80 (human CTLA-4 (human) [2]): 0.03 fold
- MFI at 33.3 nM (human CTLA-4 (human) [3]): 4690 MFI
- MFI at 33.3 nM (CD28 (human) [4]): 336 MFI
- MFI at 33.3 nM (human PD-L1 (human) [5]): 1590 MFI
- Fold change to WT CD80 (CD28 (human) [6]): 0.02 fold
B2: variant CD80 IgV-Fc R29H/E35D/M43V/M47I/I49V (Fc fusion)
chain: VIHVTKEVKEVATLSCGHNVSVEELAQTHIYWQKDKKMVLTMVSGDINVWPEYKNRTIFDITNNLSIVILALRPSDEGTYECVVLKYEKDAFKREHLAEVTLSVKAD

- Fold change to WT CD80 (human CTLA-4 (human) [11]): 0.6 fold
- MFI at 33.3 nM (CD28 (human) [4]): 118 MFI
- Ratio of PDL1:CD28 (human PD-L1 (human) [12]): 88.8
- Fold change to WT CD80 (CD28 (human) [13]): 0.2 fold
- MFI at 33.3 nM (human PD-L1 (human) [5]): 10500 MFI
- MFI at 33.3 nM (human CTLA-4 (human) [14]): 26100 MFI
- Fold change to WT CD80 (human PD-L1 (human) [15]): 81.9 fold
- IL-2 luciferase reporter, fold increase over WT CD80-IgV-Fc at 5.0 nM (human PD-L1 (human) [16]): 7.9 fold
- IL-2 luciferase reporter, fold increase over WT CD80-IgV-Fc at 5.0 nM (CD28 (human) [17]): 7.9 fold
B6: variant CD80 IgV-Fc E35D/M47V/N48K/V68M/L85Q (Fc fusion)
chain: VIHVTKEVKEVATLSCGHNVSVEELAQTRIYWQKDKKMVLTMMSGDVKIWPEYKNRTIFDITNNLSIMILALRPSDEGTYECVVQKYEKDAFKREHLAEVTLSVKAD

- Fold change to WT CD80 (human CTLA-4 (human) [11]): 0.7 fold
- MFI at 33.3 nM (CD28 (human) [4]): 246 MFI
- Ratio of PDL1:CD28 (human PD-L1 (human) [12]): 49.1
- Fold change to WT CD80 (CD28 (human) [13]): 0.3 fold
- MFI at 33.3 nM (human PD-L1 (human) [5]): 12100 MFI
- MFI at 33.3 nM (human CTLA-4 (human) [14]): 30300 MFI
- Fold change to WT CD80 (human PD-L1 (human) [15]): 94.4 fold
- IL-2 luciferase reporter, fold increase over WT CD80-IgV-Fc at 5.0 nM (human PD-L1 (human) [16]): 7.4 fold
- IL-2 luciferase reporter, fold increase over WT CD80-IgV-Fc at 5.0 nM (CD28 (human) [17]): 7.4 fold
B7: variant CD80 IgV-Fc E35D/M47V/V68M/L85Q/K89N (Fc fusion)
chain: VIHVTKEVKEVATLSCGHNVSVEELAQTRIYWQKDKKMVLTMMSGDVNIWPEYKNRTIFDITNNLSIMILALRPSDEGTYECVVQKYENDAFKREHLAEVTLSVKAD
